Test results as given in article doi:10.1101/2021.12.07.471543.

Target: C4BPα1-2, a fragment of human C4b-binding protein (C4BP) (human)
Assay: ITC

Q: How did the Kd turn out when “M2G (M2_(53)G), M2 aa 53-86 fused at its C-terminus to a GCN4 coiled-coil sequence” was run?
A: 4 µM

Q: For “Intact M2 protein (mature form), Streptococcus pyogenes strain AP2 (natural protein)”, which Kd is on record?
A: 4 µM
